Earlier results on one substance are cited in article PMC9618554.

pKd: −log10 of the molar value.

The data set addresses insulin receptor site-2' (Homo sapiens) (UniProt P06213).

Chain of insulin (P01308 90-110): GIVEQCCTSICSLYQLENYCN

insulin (from UniProt P01308): the pKd was 6.40.
